Values belong to the binder of their own block, whether it stands above or below them. Ends that are not written are not given here.
Legend:
[1] = target: T1, rat NPY Y5 receptor, clone Y217.24.13.6B (rat); experiment: competition with [125I]PYY, membranes of transfected COS-7 cells; second individual value in brackets
T1 chain: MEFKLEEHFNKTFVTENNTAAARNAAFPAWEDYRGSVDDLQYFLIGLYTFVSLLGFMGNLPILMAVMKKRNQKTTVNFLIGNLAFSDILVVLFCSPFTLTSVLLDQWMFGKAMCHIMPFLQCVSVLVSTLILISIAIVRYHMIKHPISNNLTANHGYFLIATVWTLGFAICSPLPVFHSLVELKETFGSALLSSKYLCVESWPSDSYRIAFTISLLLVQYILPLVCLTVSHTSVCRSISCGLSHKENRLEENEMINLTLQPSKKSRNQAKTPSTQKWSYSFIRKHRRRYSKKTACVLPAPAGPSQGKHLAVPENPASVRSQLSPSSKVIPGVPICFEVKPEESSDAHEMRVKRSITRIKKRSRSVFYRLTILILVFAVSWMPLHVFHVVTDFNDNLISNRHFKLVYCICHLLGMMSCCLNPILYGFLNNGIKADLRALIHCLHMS
From the text: (§1) All other peptides were purchased from either Peninsula (Belmont, Calif.) or Bachem (Torrance, Calif.).

[2] = target: T1, rat NPY Y5 receptor, clone Y217.24.13.6B; experiment: competition with [125I]PYY, membranes of transfected COS-7 cells; first individual value in brackets
From the text: as §1

[3] = target: T2, rat NPY Y5 receptor, clone Y861 (rat); experiment: competition with [125I]PYY, membranes of transfected COS-7 cells
T2 chain: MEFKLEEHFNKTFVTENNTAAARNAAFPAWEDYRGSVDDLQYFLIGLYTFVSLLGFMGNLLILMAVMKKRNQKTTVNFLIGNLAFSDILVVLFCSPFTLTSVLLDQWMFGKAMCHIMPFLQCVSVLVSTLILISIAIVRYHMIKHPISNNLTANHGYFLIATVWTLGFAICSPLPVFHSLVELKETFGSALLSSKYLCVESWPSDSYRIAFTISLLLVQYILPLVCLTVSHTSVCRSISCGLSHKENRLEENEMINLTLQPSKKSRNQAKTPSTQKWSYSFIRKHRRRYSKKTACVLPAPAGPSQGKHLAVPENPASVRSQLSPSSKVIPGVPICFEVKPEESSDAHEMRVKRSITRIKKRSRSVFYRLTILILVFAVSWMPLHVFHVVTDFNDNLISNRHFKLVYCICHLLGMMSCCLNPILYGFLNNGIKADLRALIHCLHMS
From the text: as §1

[4] = target: T3, rat NPY Y5 receptor, clone Y555 (rat); experiment: competition with [125I]PYY, membranes of transfected COS-7 cells; second individual value in brackets
T3 chain: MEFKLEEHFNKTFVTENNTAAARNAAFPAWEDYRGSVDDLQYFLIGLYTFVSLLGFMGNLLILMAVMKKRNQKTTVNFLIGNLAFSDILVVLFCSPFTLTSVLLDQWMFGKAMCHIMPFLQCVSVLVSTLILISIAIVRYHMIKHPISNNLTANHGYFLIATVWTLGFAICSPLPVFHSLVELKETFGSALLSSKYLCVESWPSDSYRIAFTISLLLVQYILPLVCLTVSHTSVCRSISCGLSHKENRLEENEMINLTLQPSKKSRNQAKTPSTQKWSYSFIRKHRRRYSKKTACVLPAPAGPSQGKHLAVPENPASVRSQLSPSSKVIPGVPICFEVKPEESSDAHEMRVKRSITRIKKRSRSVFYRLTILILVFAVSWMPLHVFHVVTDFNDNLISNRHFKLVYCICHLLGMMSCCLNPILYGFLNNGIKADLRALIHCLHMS
From the text: as §1

[5] = target: T3, rat NPY Y5 receptor, clone Y555; experiment: competition with [125I]PYY, membranes of transfected COS-7 cells; first individual value in brackets
From the text: as §1

[6] = target: T3, rat NPY Y5 receptor, clone Y555; experiment: competition with [125I]PYY, membranes of transfected COS-7 cells; average of two experiments
From the text: as §1

[7] = target: T1, rat NPY Y5 receptor, clone Y217.24.13.6B; experiment: competition with [125I]PYY, membranes of transfected COS-7 cells
From the text: as §1

B1: p(18-36)NPY (peptide)
peptide: ARYYSALRHYINLITRQRY
modifications: ends and bridges not checked
IC50 [1]: 107 nM
IC50 [2]: 147 nM

B2: r/h(20-36)NPY (peptide)
peptide: YYSALRHYINLITRQRY
modifications: ends and bridges not checked
IC50 [1]: 332 nM
IC50 [2]: 387 nM

B4: r(13-36)PYY (peptide)
peptide: SPEELSRYYASLRHYLNLVTRQRY
IC50 [4]: 54 nM
IC50 [5]: 9.6 nM
IC50 [6]: 32 nM
IC50 [3]: 73 nM
IC50 [7]: 13.2 nM

B6: hPP (peptide)
peptide: APLEPVYPGDNATPEQMAQYAADLRRYINMLTRPRY
IC50 [3]: 4.9 nM

B7: r/h(22-36)NPY (peptide)
peptide: SALRHYINLITRQRY
modifications: ends and bridges not checked
IC50 [7]: > 1000 nM

Further lines, results first:

IC50 [3]: 325 nM
B3: rPP (peptide)
peptide: APLEPMYPGDYATHEQRAQYETQLRRYINTLTRPRY

IC50 [7]: > 1000 nM
B5: r/h(26-36)NPY (peptide)
peptide: HYINLITRQRY
modifications: ends and bridges not checked
